Measurements reported in paper PMC2888147.

Target: His-tagged KCNE1 C-terminus (E1C) (human) (UniProt P15382)
Assay: SEC

Question: Which stoichiometry N does the source give for “His-tagged KCNE1 C-terminus (E1C) (from UniProt P15382 67-129) (domain or fragment)” here?
Answer: 2
